Measured values taken from patent publication US20260209320A1 (ALCHEMAB THERAPEUTICS, published 2026).

T1: Peptide 32 (mouse)
T1 peptide: QQQQQPPPQAPPPPP

T2: Peptide 33 (mouse)
T2 peptide: QQQQPPPQAPPPPPP

T3: Peptide 34 (mouse)
T3 peptide: QQQPPPQAPPPPPPP

T4: Peptide 35 (mouse)
T4 peptide: QQPPPQAPPPPPPPP

T5: Peptide 36 (mouse)
T5 peptide: QPPPQAPPPPPPPPP

T6: Peptide 37 (mouse)
T6 peptide: PPPQAPPPPPPPPPP

T7: Peptide 38 (mouse)
T7 peptide: PPQAPPPPPPPPPPQ

T8: Peptide 39 (mouse)
T8 peptide: PQAPPPPPPPPPPQP

T9: Peptide 40 (mouse)
T9 peptide: QAPPPPPPPPPPQPP

T10: Peptide 42 (mouse)
T10 peptide: PQPPPQGQPPPPPPP

T11: Peptide 43 (mouse)
T11 peptide: QPPPQGQPPPPPPPL

T12: Peptide 44 (mouse)
T12 peptide: PPPQGQPPPPPPPLP

T13: Peptide 9 (human)
T13 peptide: AQPLLPQPQPPPPPP

T14: Peptide 10 (human)
T14 peptide: QPLLPQPQPPPPPPP

T15: Epitope 1 (human, cyno)
T15 peptide: QQQQPPPPPPPPPPP

T16: Peptide 1 (human, cyno)
T16 peptide: QQQQQQQQPPPPPPP

T17: Peptide 2 (human, cyno)
T17 peptide: QQQQQQQPPPPPPPP

T18: Peptide 3 (human, cyno)
T18 peptide: QQQQQQPPPPPPPPP

T19: Peptide 4 (human, cyno)
T19 peptide: QQQQQPPPPPPPPPP

T20: Peptide 18 (cyno)
T20 peptide: QQQPPPPPPPPPPPP

T21: Peptide 21 (cyno)
T21 peptide: AQPMLPQPQPPPPPP

T22: Peptide 24 (cyno)
T22 peptide: QQQQQQQQQPPPPPP

T23: Peptide 25 (cyno)
T23 peptide: QQPPPPPPPPPPPPQ

T24: Peptide 26 (cyno)
T24 construct: the array is said to hold 15-mers
T24 peptide: QPPPPPPPPPPPPQL

T25: Peptide 28 (cyno)
T25 peptide: QPMLPQPQPPPPPPP

T26: Peptide 29 (cyno)
T26 peptide: PMLPQPQPPPPPPPP

T27: Peptide 31 (cyno)
T27 peptide: LPQPQPPPPPPPPPP

B1: ATL_0005335 (antibody, V domains shown)
VH: EVQLVESGGGLVKPGGSLRLSCAASGFTFNKAWMNWVRQAPGKGLEWVGRIKSGIDGGTTDYAAPVQGRFTISRDDSKNTVYLQMNSLNTEDTAVYYCIPPPYYYYYGLDVWGQGTTVTVSS
VL: QSALTQPASVSGSPGQSITISCTGTSSDIGSYNLVSWYQQHPGNAPKPLIYEGSKRPSGVSARFSGSKSGNTASLTISGLQPEDEADYYCSSYAGFNTLVFGGGTKVTVL
notes: human IgG1; also called ATL_5335
B2: ATL_0005331 (antibody, V domains shown)
VH: EVQLVESGGGLVKPGGSLRLSCAASGFTFNKAWMNWVRQAPGKGLEWVGRIKSGIDGGTTDYAAPVQGRFTISRDDSKNTVYLQMNSLNTEDTAVYYCIPPPYYYYYGLDVWGQGTTVTVSS
VL: QSALTQPRSVSGSPGQSITISCTGTSSDVGSYNLVSWFQQHPGKAPKLIIYEVNKRPSGVPDRFSGSKSGNTASLTVSGLQAEDEADYYCGSYAGTNNVFGTGTKLTVL
notes: human IgG1; also called ATL_5331; Human IgG1 ATL_0005331

How the values were obtained:
[1] = target: T28, Mutant Human HTT Exon 1 48Q (GST) (human); assay: ELISA
T28 construct: recombinant His- and GST-tagged fusion; also called HTT Exon 1 Q48; 48Q HTT Exon-1

Peptide 32 [2] = target: T1, Peptide 32; assay: peptide microarray; Sp M; IgG 1 µg/ml
Peptide 33 [3] = target: T2, Peptide 33; assay: peptide microarray; Sp M; IgG 1 µg/ml
Peptide 34 [4] = target: T3, Peptide 34; assay: peptide microarray; Sp M; IgG 1 µg/ml
Peptide 35 [5] = target: T4, Peptide 35; assay: peptide microarray; Sp M; IgG 1 µg/ml
Peptide 36 [6] = target: T5, Peptide 36; assay: peptide microarray; Sp M; IgG 1 µg/ml
Peptide 37 [7] = target: T6, Peptide 37; assay: peptide microarray; Sp M; IgG 1 µg/ml
Peptide 38 [8] = target: T7, Peptide 38; assay: peptide microarray; Sp M; IgG 1 µg/ml
Peptide 39 [9] = target: T8, Peptide 39; assay: peptide microarray; Sp M; IgG 1 µg/ml
Peptide 40 [10] = target: T9, Peptide 40; assay: peptide microarray; Sp M; IgG 1 µg/ml
Peptide 42 [11] = target: T10, Peptide 42; assay: peptide microarray; Sp M; IgG 1 µg/ml
Peptide 43 [12] = target: T11, Peptide 43; assay: peptide microarray; Sp M; IgG 1 µg/ml
Peptide 44 [13] = target: T12, Peptide 44; assay: peptide microarray; Sp M; IgG 1 µg/ml
Peptide 9 = target: T13, Peptide 9; assay: peptide microarray; Sp H; IgG 10 µg/ml
Peptide 10 = target: T14, Peptide 10; assay: peptide microarray; Sp H; IgG 10 µg/ml
Peptide 32 [14] = target: T1, Peptide 32; assay: peptide microarray; Sp M; IgG 10 µg/ml
Peptide 33 [15] = target: T2, Peptide 33; assay: peptide microarray; Sp M; IgG 10 µg/ml
Peptide 34 [16] = target: T3, Peptide 34; assay: peptide microarray; Sp M; IgG 10 µg/ml
Peptide 35 [17] = target: T4, Peptide 35; assay: peptide microarray; Sp M; IgG 10 µg/ml
Peptide 36 [18] = target: T5, Peptide 36; assay: peptide microarray; Sp M; IgG 10 µg/ml
Peptide 37 [19] = target: T6, Peptide 37; assay: peptide microarray; Sp M; IgG 10 µg/ml
Peptide 38 [20] = target: T7, Peptide 38; assay: peptide microarray; Sp M; IgG 10 µg/ml
Peptide 39 [21] = target: T8, Peptide 39; assay: peptide microarray; Sp M; IgG 10 µg/ml
Peptide 40 [22] = target: T9, Peptide 40; assay: peptide microarray; Sp M; IgG 10 µg/ml
Peptide 42 [23] = target: T10, Peptide 42; assay: peptide microarray; Sp M; IgG 10 µg/ml
Peptide 43 [24] = target: T11, Peptide 43; assay: peptide microarray; Sp M; IgG 10 µg/ml
Peptide 44 [25] = target: T12, Peptide 44; assay: peptide microarray; Sp M; IgG 10 µg/ml
Epitope 1 = target: T15, Epitope 1; assay: peptide microarray; Sp C2; IgG 10 µg/ml
Peptide 1 = target: T16, Peptide 1; assay: peptide microarray; Sp C2; IgG 10 µg/ml
Peptide 2 = target: T17, Peptide 2; assay: peptide microarray; Sp C2; IgG 10 µg/ml
Peptide 3 = target: T18, Peptide 3; assay: peptide microarray; Sp C2; IgG 10 µg/ml
Peptide 4 = target: T19, Peptide 4; assay: peptide microarray; Sp C2; IgG 10 µg/ml
Peptide 18 = target: T20, Peptide 18; assay: peptide microarray; Sp C2; IgG 10 µg/ml
Peptide 21 = target: T21, Peptide 21; assay: peptide microarray; Sp C2; IgG 10 µg/ml
Peptide 24 = target: T22, Peptide 24; assay: peptide microarray; Sp C2; IgG 10 µg/ml
Peptide 25 = target: T23, Peptide 25; assay: peptide microarray; Sp C2; IgG 10 µg/ml
Peptide 26 = target: T24, Peptide 26; assay: peptide microarray; Sp C2; IgG 10 µg/ml
Peptide 28 = target: T25, Peptide 28; assay: peptide microarray; Sp C2; IgG 10 µg/ml
Peptide 29 = target: T26, Peptide 29; assay: peptide microarray; Sp C2; IgG 10 µg/ml
Peptide 31 = target: T27, Peptide 31; assay: peptide microarray; Sp C2; IgG 10 µg/ml

T28 sequence (chain, as listed by the source mutant limits assumed): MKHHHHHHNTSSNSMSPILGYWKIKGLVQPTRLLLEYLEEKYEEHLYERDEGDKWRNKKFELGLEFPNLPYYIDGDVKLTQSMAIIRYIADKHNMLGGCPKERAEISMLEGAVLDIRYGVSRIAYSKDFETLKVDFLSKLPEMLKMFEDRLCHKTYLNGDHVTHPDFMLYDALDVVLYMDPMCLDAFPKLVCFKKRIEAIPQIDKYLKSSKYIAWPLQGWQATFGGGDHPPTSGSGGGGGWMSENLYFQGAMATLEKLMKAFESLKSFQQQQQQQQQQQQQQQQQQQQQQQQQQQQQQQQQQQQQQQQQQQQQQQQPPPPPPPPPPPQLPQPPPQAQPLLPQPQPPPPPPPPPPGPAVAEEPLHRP

Binder | binding result [1] | corrected fluorescence intensity (Peptide 32 [2]) | corrected fluorescence intensity (Peptide 33 [3]) | corrected fluorescence intensity (Peptide 34 [4]) | corrected fluorescence intensity (Peptide 35 [5]) | corrected fluorescence intensity (Peptide 36 [6]) | corrected fluorescence intensity (Peptide 37 [7]) | corrected fluorescence intensity (Peptide 38 [8]) | corrected fluorescence intensity (Peptide 39 [9]) | corrected fluorescence intensity (Peptide 40 [10]) | corrected fluorescence intensity (Peptide 42 [11]) | corrected fluorescence intensity (Peptide 43 [12]) | corrected fluorescence intensity (Peptide 44 [13]) | corrected fluorescence intensity (Peptide 9) | corrected fluorescence intensity (Peptide 10) | corrected fluorescence intensity (Peptide 32 [14]) | corrected fluorescence intensity (Peptide 33 [15]) | corrected fluorescence intensity (Peptide 34 [16]) | corrected fluorescence intensity (Peptide 35 [17]) | corrected fluorescence intensity (Peptide 36 [18]) | other results
B1 | binds | 0 | 600 | 754 | 758 | 778 | 742 | 194 | 0 | 0 | 612 | 120 | 143 | 3470 | 5410 | 286 | 3090 | 5800 | 7820 | 8300 | corrected fluorescence intensity (Peptide 37 [19]): 7370; corrected fluorescence intensity (Peptide 38 [20]): 3520; corrected fluorescence intensity (Peptide 39 [21]): 1880; corrected fluorescence intensity (Peptide 40 [22]): 0; corrected fluorescence intensity (Peptide 42 [23]): 2280; corrected fluorescence intensity (Peptide 43 [24]): 899; corrected fluorescence intensity (Peptide 44 [25]): 1250; corrected fluorescence intensity (Epitope 1): 9590; corrected fluorescence intensity (Peptide 1): 7010; corrected fluorescence intensity (Peptide 2): 8870; corrected fluorescence intensity (Peptide 3): 9510; corrected fluorescence intensity (Peptide 4): 10000; corrected fluorescence intensity (Peptide 18): 8370; corrected fluorescence intensity (Peptide 21): 448; corrected fluorescence intensity (Peptide 24): 3260; corrected fluorescence intensity (Peptide 25): 3300; corrected fluorescence intensity (Peptide 26): 1910; corrected fluorescence intensity (Peptide 28): 2670; corrected fluorescence intensity (Peptide 29): 4680; corrected fluorescence intensity (Peptide 31): 7740
B2 | binds | 0 | 0 | 162 | 181 | 190 | 180 | 0 | 0 | 0 | 41.5 | 14.5 | 0 | 1260 | 2250 | 0 | 633 | 1540 | 2410 | 2740 | corrected fluorescence intensity (Peptide 37 [19]): 3160; corrected fluorescence intensity (Peptide 38 [20]): 825; corrected fluorescence intensity (Peptide 39 [21]): 842; corrected fluorescence intensity (Peptide 40 [22]): 234; corrected fluorescence intensity (Peptide 42 [23]): 884; corrected fluorescence intensity (Peptide 43 [24]): 997; corrected fluorescence intensity (Peptide 44 [25]): 1740; corrected fluorescence intensity (Epitope 1): 4580; corrected fluorescence intensity (Peptide 1): 2700; corrected fluorescence intensity (Peptide 2): 4070; corrected fluorescence intensity (Peptide 3): 4830; corrected fluorescence intensity (Peptide 4): 4870; corrected fluorescence intensity (Peptide 18): 4500; corrected fluorescence intensity (Peptide 21): 888; corrected fluorescence intensity (Peptide 24): 994; corrected fluorescence intensity (Peptide 25): 947; corrected fluorescence intensity (Peptide 26): 1040; corrected fluorescence intensity (Peptide 28): 1700; corrected fluorescence intensity (Peptide 29): 2170; corrected fluorescence intensity (Peptide 31): 5480
